US6458932 (YEDA RESEARCH AND DEVELOPMENT, dated 2002)

Target: urinary IFNAB-BPII (human) (UniProt P48551)
Assay: iRIA; control antibody (dilution 1:1) captured on goat anti-mouse F(ab)2, then 125I-IFNAB-BP

Chain of urinary IFNAB-BPII (human) (P48551 other isoform, or with tags, fused parts or gaps): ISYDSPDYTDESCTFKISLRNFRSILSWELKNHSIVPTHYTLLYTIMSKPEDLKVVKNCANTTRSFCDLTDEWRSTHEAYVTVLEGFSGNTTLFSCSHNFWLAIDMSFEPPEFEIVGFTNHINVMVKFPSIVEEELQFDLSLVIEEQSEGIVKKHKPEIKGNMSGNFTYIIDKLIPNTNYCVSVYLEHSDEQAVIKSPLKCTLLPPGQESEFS

Control antibody
iRIA - CPM: 20 cpm
